System: MS2 coat protein
Assay: apparent KD of MS2 coat protein; designed switch direction (-1 OFF switch, 1 ON switch): -1; higher = weaker reporter binding
Summary of the method: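 Each step of the titration lasted 0.8–1.5 h at the lowest concentration and 10–20 min at the highest. The protein, SNAP-549-labelled MS2 coat protein, went from 0.7 or 1.5 nM doubling to 3 µM over RNA switches transcribed on Illumina chips by stalled E. coli RNA polymerase. Normalised cluster fluorescence was curve-fitted, and the per-design median over clusters is given as apparent KD.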

[1] = Eterna round: R95, input ligand: microRNA oligo, concentration not stated
[2] = Eterna round: R95, input ligand: FMN 200 uM
[3] = Eterna round: R95, input ligand: none

Sequence	apparent KD of MS2 coat protein (input ligand: FMN 200 uM)	apparent KD of MS2 coat protein (input ligand: none)	apparent KD of MS2 coat protein [1]	apparent KD of MS2 coat protein [2]	apparent KD of MS2 coat protein [3]
GAUAUGUAAGGAUAUCGUGCAAGUUUCAAAAGAGGCUUGUGCGAGAAGGUACAUGAGGAUCACCCAUGUAGGUU [Omei Ex4 B14] (Eterna round: R97, puzzle: Exclusion 4)	116 nM	29.6 nM			
GUUAGACAUGAGGAUCACCCAUGUGAGGAUAUGAUGCGAUCGUGCUGACAUGAUCGCAUCAGAAGGCACAUAUG [Mat - Mod of JL D66] (puzzle: Exclusion 1)			95.7 nM		
GGCAUGCAAGGAUAUACUUACGGUGGUGUUCGAAGCUUUCUACUUGAGGAUCACCCAAGUAGAAGGUGCAUGCC [jl-ex2.4.74 ViennaUCT mod] (Eterna round: R97, puzzle: Exclusion 2)	18.7 nM	23.7 nM			
AGUACUAACACGAAAGUGUUGGUACAAUAAGCUUGUGAAACAUGAGGAUCACCCAUGUCCUCAUAAGCUCGUCUUAU [salish99_TOv2_r3_036] (puzzle: Sensor v3, turn-off variant 2)			599 nM	17.9 nM	16.7 nM
GCAGGUUAAGUCAGGAUAUACCUAUGGAUACAUAGGUAGAAGGGACAUGAGGAUCACCCAUGUUCCUCACCUGC [Fiskers BMX 4 - 21] (puzzle: Brourd's mod of Exclusion 4)			13.9 nM		
UUUACAAGCUUUAGAUCCCACAUGAGGAUCACCCAUGUUGCUGCCGUGAGGUAGCUUUUAACUAAUGCUCGUCUUAU [JL TOV1 3.41] (Eterna round: R97, puzzle: Sensor, turn-off variant 1)	103 nM	124 nM			
GACUGGACGUGGUCUGGUUACAUGAGGAUCACCCAUGUAGGUCUAAGAACAUGCCUUUUGUACGCUCGUCUUAUAUA [JR_SV3TOV1_Sub065] (puzzle: Sensor v3, turn-off variant 1)			20.7 nM	37.9 nM	39.6 nM
GCAAGCUUUUUGGUUUUCAACAUGAGGAUCACCCAUGUUCGUCUUAUACCCGGGCCCGGGCGGUGCCCGGGCCCGGG [-40, -68 kcal, A 14%] (Eterna round: R97, puzzle: Sensor, turn-off variant 1)	18.2 nM	21.7 nM			
AAUAAACAAGCGAGAUCCUACAUGAGGAUCACCCAUGUGCUCGUCUUAUAAAGUACUAUCACGAAAGUGAUAGUACA [Mat - Sensor v3 - turn-off var 1 - Eli Mod - D65] (puzzle: Sensor v3, turn-off variant 1)			41.5 nM	16.1 nM	15.3 nM
CCGUACGGAGGAUAUACAUGAGGAUCACCCAUGUGUCCGCGCGUGGGAACACGUAAUAGUAGAAGGCCGUCCGG [jl-ex3-4.78 Brourd automod] (Eterna round: R97, puzzle: Exclusion 3)	491 nM	59.4 nM			
GUGAUAACCAAGCUAGCCAACAUGAGGAUCACCCAUGUGUUCGAUAUGCAACAGGUAUGAUCUUAAUUUGCUCGAUC [Eternabot (Original) Solution 20] (Eterna round: R97, puzzle: Sensor, turn-off variant 1)	44.3 nM	48.5 nM			
CAUGUAAGUCGUUGAUCCAACAUGAGGAUCACCCAUGUCACUUUAGCUUUUUGCUCGUCUUAUCCUCCUUUGUUCAC [JR_STOV1_v2_Sub0100] (Eterna round: R97, puzzle: Sensor, turn-off variant 1)	482 nM	1060 nM			
CGUGCGUAUGUGAGGAUAUGCUGGUCCUUGGCUCGGCAGAAGGCACAUGAGGAUCACCCAUGUGGUGUCGUACC [salish99_Bmod_ex4_061] (puzzle: Brourd's mod of Exclusion 4)			18.9 nM		
GUUGUUCGAGGAUAUACAUGAGGAUCACCCAUGUGUGUUGUGGGCGACGUUCGUUUAUGUAGAAGGCGGGCGGC [-27.2, -23.9 kcal, 19% A] (Eterna round: R97, puzzle: Exclusion 3)	78.2 nM	50.1 nM			
GCAUGAUACUAGGAUAUCAGCAUACUUCAAUGUUGAGAAGGAGUAACAUGAGGAUCACCCAUGUAUCCAACAUG [Exclusion 6 - 4:a] (puzzle: Exclusion 6)			38.5 nM		
AUAAGUAUAUAGGAUAUCUAGCUGGUAACAGCUAGAGAAGGAUGUACAUGAGGAUCACCCAUGUAAAUCUCAAU [Ex6/12-A2] (Eterna round: R97, puzzle: Exclusion 6)	15.7 nM	16.1 nM			
GAGGGACAUGAGGAUCACCCAUGUGAGGAUAUGUAAGAGAGAAGAGAGAGGAUAAGAAACAGAAGGCGCGGGAG [JR_Exclu1_Sub090] (puzzle: Exclusion 1)			44 nM	33.9 nM	77.1 nM
CAUACAGUAGUCAGGAUAUUGCAACACACACGGAACGAGAAGGGACAUGAGGAUCACCCAUGUAUACUGUAAAG [EX-4 Malc #5] (puzzle: Brourd's mod of Exclusion 4)			21 nM	16 nM	24.7 nM
